The Kd is the free concentration of one partner at which half of the binding sites on the other are occupied at equilibrium, for simple one-to-one binding. A high value points to a looser complex.

In data set [1] the test system is AF10PZP WT (mouse). As to the kind of experiment: fluorescence polarization. As to conditions: S1/2, FP: 25 mM Tris-HCl pH 7.5, 75 mM NaCl, 0.00625% Tween20, 5 mM DTT, 5 nM NCP, NCP EMSA: 25 mM Tris pH 7.5, 75 mM NaCl, 10% glycerol, 0.005% Tween 20, 4 C, DNA …. In general terms: Polarisation of emitted light reports the rotation of a fluorescent probe.
The target in data set [2] is nucleosome core particle reconstituted with 207 bp DNA (NCP207) (human) (UniProt P0C0S8). As to the kind of experiment: fluorescence polarisation; 5 nM fluorescein-labelled NCP with increasing AF10PZP WT or mutants; 75 mM NaCl, 25 mM Tris-HCl pH 7.5, 0.00625% Tween20, 5 mM DTT; fit to a binding isotherm, S1/2.
The test system of data set [3] is AF10PZP D43K (mouse). As to the kind of experiment: fluorescence polarization. As to conditions: 75 mM NaCl; S1/2; FP: 25 mM Tris-HCl pH 7.5, 75 mM NaCl, 0.00625% Tween20, 5 mM DTT, 5 nM NCP; NCP EMSA: 25 mM Tris pH 7.5, 75 mM NaCl, 10% glycerol, 0.005% Tween 20, 4 C; DNA ….
In data set [4] the test system is AF10PZP E179K (mouse). As to the kind of experiment: fluorescence polarization. The following applies: 75 mM NaCl; S1/2; FP: 25 mM Tris-HCl pH 7.5, 75 mM NaCl, 0.00625% Tween20, 5 mM DTT, 5 nM NCP; NCP EMSA: 25 mM Tris pH 7.5, 75 mM NaCl, 10% glycerol, 0.005% Tween 20, 4 C; DNA ….
In data set [5] the target is nucleosome reconstituted with 147 bp 601 DNA (NCP147) (human) (UniProt P0C0S8). The data set can be described thus: fluorescence polarisation; 5 nM fluorescein-labelled NCP with increasing AF10PZP WT or mutants; 75 mM NaCl, 25 mM Tris-HCl pH 7.5, 0.00625% Tween20, 5 mM DTT; fit to a binding isotherm, S1/2.
In data set [6] the target is nucleosome core particle reconstituted with 207 bp DNA (NCP207), P0C0S8;P62807;Q71DI3;P62805. The data set can be described thus: fluorescence anisotropy. The following applies: chain shown with the change.

For 207 bp 601 DNA, in data set [1], the K half is 8 µM. For “AF10PZP D43K mutant (aa 19–208) (from UniProt O54826 19-208) (domain or fragment)”, in data set [2], the S1/2 stood at 9 µM. Same read-out and setting: to “AF10PZP E179K mutant (aa 19–208) (from UniProt O54826 19-208) (domain or fragment)” belongs 14 µM. NCP147 showed a K half in data set [1] (75 mM NaCl) of 15 µM. NCP207: the K half in data set [3] stood at 9 µM; in data set [1] (75 mM NaCl), 6 µM; in data set [4] it was 14 µM. Take “PZP domain of AF10 (AF10PZP, aa 19–208), wild type (from UniProt O54826 19-208) (domain or fragment)”: the S1/2 in data set [5] is 15 µM; in data set [2], 6 µM.

B1: PZP domain of AF10 (AF10PZP, aa 19–208), wild type, O54826 D43K (protein)
chain: KEMIGGCCVCSDERGWAENPLVYCKGHGCSVAVHQACYGIVQVPTGPWFCRKCESQERAARVRCELCPHKDGALKRTDNGGWAHVVCALYIPEVQFANVSTMEPIVLQSVPHDRYNKTCYICDEQGRESKAATGACMTCNKHGCRQAFHVTCAQFAGLLCEEEGNGADNVQYCGYCKYHFSKLKKSKRGS
Turning to B1, the Kd in data set [6] turned out to be 9 µM.
